Source: US20260167734A1 (PROVIDENCE HEALTH AND SERVICES OREGON, published 2026)
Substitutions are numbered along the chain they refer to. Names may count otherwise. Values belong to the binder of their own block, whether it stands above or below them.

Legend:
rat FasL, cell surface = biological target: T1, rat FasL, cell surface (rat, UniProt P36940 1-278); assay: flow cytometry, HEK293T cells transfected with rat FasL
T1 construct: Expressed on transfected HEK293T cells
T1 sequence: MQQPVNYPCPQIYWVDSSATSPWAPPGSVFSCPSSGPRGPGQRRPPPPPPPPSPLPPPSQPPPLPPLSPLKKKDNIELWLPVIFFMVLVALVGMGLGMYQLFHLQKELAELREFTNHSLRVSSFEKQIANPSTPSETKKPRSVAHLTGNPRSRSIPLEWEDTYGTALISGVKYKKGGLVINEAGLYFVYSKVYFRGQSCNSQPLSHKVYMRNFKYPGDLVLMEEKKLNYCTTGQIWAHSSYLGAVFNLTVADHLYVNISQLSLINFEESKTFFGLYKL
Protocol: (§1) FIG. 2B: Binding of M3T01 to cell surface FasL across multiple species (human, cynomolgus macaque, rat, and mouse). M3T01 staining of HEK293T cells transfected with vectors expressing FasL from various species was measured by flow cytometry.
(§2) Next, assays were performed to evaluate binding of M3T01 to cell-surface, membrane-bound FasL from a variety of different species. HEK293T cells were transfected with vectors expressing either mouse, human, rat or cynomolgus macaque FasL and binding by M3T01 was measured by flow cytometry.

[1] = biological target: T2, soluble human Fas ligand (FasL) (human, UniProt P48023 103-281, limits assumed); assay: ELISA on soluble FasL
T2 construct: also called sFasL; recombinant soluble FasL
T2 sequence: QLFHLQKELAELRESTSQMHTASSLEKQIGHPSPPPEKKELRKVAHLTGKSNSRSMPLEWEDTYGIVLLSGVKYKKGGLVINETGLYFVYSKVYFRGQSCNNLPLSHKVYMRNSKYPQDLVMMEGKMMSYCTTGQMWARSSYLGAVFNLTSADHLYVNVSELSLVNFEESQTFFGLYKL

[2] = biological target: T2, soluble human Fas ligand (FasL); assay: SPR, BIACORE 8K, multi-dose; M3T01 in column 'Ligand', Recombinant Human Fas Ligand in column 'Analyte'
Protocol: (§3) Binding of M3T01 to human FasL was measured by multi-dose SPR using BIACORE™ 8K. […] In another study, binding of M3T01 to soluble FasL (sFasL) was measured by ELISA.

mouse FasL, cell surface = biological target: T3, mouse FasL, cell surface (mouse, UniProt P41047 1-279); assay: flow cytometry, HEK293T cells transfected with mouse FasL
T3 construct: Expressed on transfected HEK293T cells
T3 sequence: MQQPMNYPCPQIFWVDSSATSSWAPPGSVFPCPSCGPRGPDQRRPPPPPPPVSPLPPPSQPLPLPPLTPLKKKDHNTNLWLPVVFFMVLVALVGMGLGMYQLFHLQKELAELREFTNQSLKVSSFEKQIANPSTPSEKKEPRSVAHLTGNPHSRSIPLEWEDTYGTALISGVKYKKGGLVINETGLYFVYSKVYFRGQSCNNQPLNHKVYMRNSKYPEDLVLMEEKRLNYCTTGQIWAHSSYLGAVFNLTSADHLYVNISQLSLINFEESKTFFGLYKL
Protocol: as §1, §2

[3] = biological target: T2, soluble human Fas ligand (FasL); assay: single-dose SPR
From the text: Several variants of the M3T01 antibody were isolated and tested for binding affinity to human FasL using a single-dose SPR affinity measurement. Each variant clone includes the same CDR sequences as M3T01 but includes one or more amino acid substitutions in the framework region (FR) of the VH domain and/or VL domain. The variant sequences, substitutions relative to the M3T01 VH and VL domains, and measured binding affinity are listed in Table 2. The binding affinities reported in Table 2 are from a single-dose SPR study.

[4] = biological target: T2, soluble human Fas ligand (FasL); assay: multi-dose SPR, BIACORE 8K; multi-dose SPR using BIACORE 8K
Protocol: as §3

[5] = biological target: T4, cynomolgus macaque FasL, cell surface (cynomolgus macaque, UniProt P63308 1-280); assay: flow cytometry, HEK293T cells transfected with cynomolgus macaque FasL
T4 construct: Expressed on transfected HEK293T cells
T4 sequence: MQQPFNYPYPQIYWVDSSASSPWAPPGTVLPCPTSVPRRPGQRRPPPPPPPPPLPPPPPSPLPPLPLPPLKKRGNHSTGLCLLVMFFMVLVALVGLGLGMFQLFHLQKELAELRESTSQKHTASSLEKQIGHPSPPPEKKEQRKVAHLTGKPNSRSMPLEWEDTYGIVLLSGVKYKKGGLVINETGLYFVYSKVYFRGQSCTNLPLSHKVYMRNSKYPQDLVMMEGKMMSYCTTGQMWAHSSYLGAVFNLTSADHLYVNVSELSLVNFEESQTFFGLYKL
Protocol: as §1, §2

[6] = biological target: T5, human FasL, cell surface (membrane-bound) (human, UniProt P48023 1-281); assay: cell-based or functional assay
T5 sequence: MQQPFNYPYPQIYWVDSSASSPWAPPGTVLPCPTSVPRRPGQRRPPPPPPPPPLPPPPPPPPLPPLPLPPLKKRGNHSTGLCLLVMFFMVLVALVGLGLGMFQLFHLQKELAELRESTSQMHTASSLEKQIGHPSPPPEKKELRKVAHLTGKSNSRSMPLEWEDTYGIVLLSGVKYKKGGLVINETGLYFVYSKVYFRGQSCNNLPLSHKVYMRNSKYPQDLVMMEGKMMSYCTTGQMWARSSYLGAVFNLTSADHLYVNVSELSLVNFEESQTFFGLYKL

B2: M27.3 (antibody, V domains shown)
VH: QVQLVESGGGVVQPGRSLRLSCAASGFTFSTYGIHWVRQAPGKGLEWVAVIWYDGSDKFYADSVKGRFTISRDNSKDTLYLEMNSLRAEDTAMYYCARDRDNWNYFDYWGQGTLVTVSS
VL: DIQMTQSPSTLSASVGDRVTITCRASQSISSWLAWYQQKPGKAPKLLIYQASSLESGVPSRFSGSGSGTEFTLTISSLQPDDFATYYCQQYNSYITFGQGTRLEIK
notes: Variant clone of M3T01 with the same CDRs
Kd [3]: 1.96 nM

B3: M27.4 (antibody, V domains shown)
VH: B2 VH with D77N, E82Q, M93V
VL: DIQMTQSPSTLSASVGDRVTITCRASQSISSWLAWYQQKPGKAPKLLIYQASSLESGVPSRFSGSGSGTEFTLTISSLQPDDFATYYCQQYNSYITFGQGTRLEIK
notes: as for B2
Kd [3]: 3.1 nM

B5: M27.1 (antibody, V domains shown)
VH: B2 VH
VL: DIQMTQSPSTLSASVGDRVTITCRASQSISSWLAWYQQKPGKAPKFLIYQASSLESGVPSRFSGSGSGTEFTLTISSLQPDDFATYYCQQYNSYITFGQGTRLEIK
notes: as for B2
Kd [3]: 1.36 nM

More lines, in order of falling Kd [3], values ahead:

Kd [3]: 3.44 nM
B6: M27.5 (antibody, V domains shown)
VH: B2 VH with E82Q
VL: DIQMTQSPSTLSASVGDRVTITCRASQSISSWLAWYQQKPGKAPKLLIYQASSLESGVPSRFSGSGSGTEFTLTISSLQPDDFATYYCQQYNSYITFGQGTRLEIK
notes: as for B2

binding result (rat FasL, cell surface): binds | EC50 (read off the curve) [1]: ~20 pM | koff [2]: 0.000235 s⁻¹ | kon [2]: 242000 M⁻¹ s⁻¹ | binding result (mouse FasL, cell surface): binds | Kd [3]: 3.2 nM | Kd [4]: 0.974 nM | binding result [5]: binds | inhibition of FasL-mediated apoptosis of Jurkat cells (annexin-V externalization, flow cytometry), IC50 [6]: 0.33 nM | inhibition of FasL-mediated apoptosis of Jurkat cells, potency relative to sCD95-Fc [6]: 310 fold
B1: M3T01 (antibody, V domains shown)
VH: B2 VH with D77N, E82Q, M93V
VL: DIQMTQSPSTLSASVGDRVTITCRASQSISSWLAWYQQKPGKAPKFLIYQASSLESGVPSRFSGSGSGTEFTLTISSLQPDDFATYYCQQYNSYITFGQGTRLEIKR
notes: Fully human IgG4/kappa with S228P; also called M27.2

Kd [3]: 2.12 nM
B4: M27.6 (antibody, V domains shown)
VH: B2 VH with M93V
VL: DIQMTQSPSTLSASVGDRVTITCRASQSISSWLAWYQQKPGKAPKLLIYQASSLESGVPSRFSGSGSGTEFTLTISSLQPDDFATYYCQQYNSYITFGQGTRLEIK
notes: as for B2
